In patent publication US20210032294A1, “MODIFIED PlySs2 LYSINS AND USES THEREOF” (CONTRAFECT CORPORATION, priority 2018, published 2021):

Test system: 5 MRSA strains and 5 MSSA strains
Assay: Checkerboard synergy assay with daptomycin or vancomycin
Type: cell-based, Staphylococcus aureus
Conditions: for FIC index: with vancomycin
Method: Synergy studies with antibiotics suitable for treatment of Gram-positive bacteria, for example, daptomycin (DAP) and vancomycin (VAN), were performed using a checkerboard assay. Fractional inhibitory concentration (FIC) index values were determined for modified lysin polypeptide pp296 and antibiotic combinations against 5 methicillin-sensitive Staphylococcus aureus (MSSA) and 5 methicillin resistant Staphylococcus aureus (MRSA) isolates. An FIC index value of ≤0.5 may be interpreted as strong synergy between the two agents, while a value between 0.5 and 1 may still be considered a synergistic effect. Given that pp296 has four amino acid replacements in the catalytic domain, the ability of pp296 to synergize with antibiotics was unexpected. […] Qualitatively similar results may be anticipated upon performing similar assays using other de-immunized active variants, such as pp55, pp61, pp65, pp400, and pp619, in accordance with the present disclosure.
In another experiment, the ability of modified lysin polypeptide pp296 to synergize with daptomycin and vancomycin was assessed using a checkerboard analysis. FIC (fractional inhibitory concentration) index values were determined for pp296 and antibiotic combinations against 5 MSSA and 5 MRSA isolates. A total of 50 μl of Mueller-Hinton broth (BBL) was distributed into each well of microdilution plates. The first antibiotic of the combination was serially diluted along the ordinate, while the second drug was diluted along the abscissa. An inoculum equal to a 0.5 McFarland turbidity standard was prepared from each S. aureus isolate in MHB. Each microtiter well was inoculated with 100 μl of a bacterial inoculum of 5×10^5 CFU/ml, and the plates were incubated at 37° C. for 18 h under aerobic conditions. The resulting checkerboard contained each combination of two antibiotics, with wells that contained the highest concentration of each antibiotic at opposite corners. […] To quantify the interactions between the antibiotics being tested, the FIC index (the combination of antibiotics that produced the greatest change from the individual antibiotic's MIC) value was calculated for each strain and antibiotic combination as follows:
(A/MICA)+(B/MICB)=FICA+FICB=FIC index,
Checkerboards were generated using combinations of pp296 with either daptomycin or vancomycin against 5 MRSA strains (MW2, JMI-5675, JMI-4408, JMI-6181, and JMI-6182) and 5 MSSA strains (ATCC 29213, JMI-40979, JMI-43257, JMI-41293, and JMI-49315). Synergy was defined as inhibitory activity greater than what would be predicted by adding the two components together.

B1: pp296: Modified PlySs2 lysin, SEQ ID NO: 6: L92W, V104S, V128T, Y137S, Y164K, N184D, S198Q (protein)
chain: MTTVNEALNNVRAQVGSGVSVGNGECYALASWYERMISPDATVGLGAGVGWVSGAIGDTISAKNIGSSYNWQANGWTVSTSGPFKAGQIVTWGATPGNPYGHVSIVEAVDGDRLTILEQNYGGKRYPTRNYYSAASSRQQVVHYITPPGTVAQSAPNLAGSRSKRETGTMTVTVDALNVRRAPDTSGEIVAVYKRGEQFDYDTAIIDVNGYAWVSYIGGSGKRNYVATGATKDGKRFGNAWGTFK
Work on B1 yielded an FIC index values (with both daptomycin and vancomycin, predominantly) of ~0.5, an FIC index (MRSA JMI-6182) of 0.375 and an FIC index (MSSA ATCC 29213) of 0.625. The FIC index (MSSA strain JMI-40979) was 0.375 and the FIC index (against 6 of the 10 strains examined) was 0.5.
